The values that follow come from patent US20230183322A1 (PEKING UNIVERSITY, published 2023).

First the molecules themselves.
B1: ABU-360 (antibody, V domains shown)
VH: EVQLVESGGGLVQPGGSLRLSCAASEFIVSRNYMSWVRQAPGKGLEWVSVIYSGGSTFYADSVKGRFTISRDNSKNTLYLQMNSLRAEDTGVYYCARDRGLVSDYWGQGTLVTVSS
VL: DIQMTQSPSSLSASVGDRVTITCQASQDINKYLNWYQQKPGKAPKLLIFDASHLETGVPSRFSASGSGTDFTFTISSLQPEDIATYYCHQYDNLPRTFGQGTRLEIK
B2: ABU-354 (antibody, V domains shown)
VH: EVQLVESGGGLIQPGGSLRLSCAASGLIVSSNYMSWVRQAPGKGLEWVSVLYAGGSTDYAGSVKGRFTISRDNSKNTLYLQMNSLRAEDTAVYYCARDAAVYGIDVWGQGTTVTVSS
VL: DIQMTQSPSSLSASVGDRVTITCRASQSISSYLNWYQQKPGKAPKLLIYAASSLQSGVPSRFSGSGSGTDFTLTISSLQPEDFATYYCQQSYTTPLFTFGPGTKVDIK
B3: ABU-357 (antibody, V domains shown)
VH: EVQLVESGGGLVQPGGSLRLSCAASGVTVSSNYMSWVRQAPGKGLEWVSVIYSGGSTNYADSVKGRFTISRDNSKNTLYLQMNSLRAEDTAVYYCARDLVSYGMDVWGQGTTVTVSS
VL: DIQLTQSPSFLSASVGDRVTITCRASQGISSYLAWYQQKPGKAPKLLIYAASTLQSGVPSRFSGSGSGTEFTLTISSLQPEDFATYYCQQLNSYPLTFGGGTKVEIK
B4: ABU-352 (antibody, V domains shown)
VH: B3 VH with V12I, V27L, S35T, N58F, D72H, L99A, V100M
VL: DIQMTQSPSSLSASVGDRVTITCRASQSISNFLNWYQQKPGKAPKLLIYAASSLQSGVPSRFSGSGSGTGFTLTISSLQPEDFATYYCQQSYSTPPDTFGQGTRLEIK
B5: ABU-359 (antibody, V domains shown)
VH: B3 VH with V27F, T28I, S35T, N58F, D72H, Y79F, L99A, V100Q, S101N
VL: B4 VL with N31S, F32Y, Y49F, S56T, V58A, G70D, D97Y, R104K
B6: ABU-369 (antibody, V domains shown)
VH: B3 VH with V12I, V27L, N58F, V100Y, S101Y
VL: AIQLTQSPSSLSASVGDRVTITCRASQGISSYLAWYQQKPGKAPKLLIFAASTLQSGVPSRFSGSGSGTDFTLTISSLQPEDFATYYCQQLDSYPLFGGGTKVEIK
B7: ABU-361 (antibody, V domains shown)
VH: B3 VH with V12I, V27L, N58Y, K75T, V100D, S101Y
VL: DIQLTQSPSSLSASVGDRVTITCRASQGISSYLAWYQQKPGKAPNLLIYAASTLQSGVPSRFSGSGSGTDFTLTISSLQPEDFATYYCQHLNSYPPITFGQGTRLEIK
B8: ABU-368 (antibody, V domains shown)
VH: B3 VH with V12I, V27F, N58F, V100G, S101A
VL: DIQLTQSPSFLSASVGDRVTITCRASQGISSYLAWYQQKPGKAPKLLIYAASTLQSGVPSRFSGSGSGTEFTLTISSLQPEDFATYYCQQLNSDLYTFGQGTKLEIK
B9: ABU-356 (antibody, V domains shown)
VH: B3 VH with V12I, V27F, S35N, N58F, L99R, S101V
VL: B1 VL with N30I, K31N, F49Y, D50G, H53N, A64G, S65G, R96P
B10: ABU-362 (antibody, V domains shown)
VH: B3 VH with V27F, S31R, S56T, N58H, D72H, S101V
VL: B8 VL with R61S, D94Y, L95P, Y96L, Q100G, L104V
B11: ABU-358 (antibody, V domains shown)
VH: B3 VH with V12I, V27L, S35N, N58Y, T77M, L78V, S101V, T114I
VL: B7 VL with N45K, F83V, H90Q, Y94N, Q101P, R104K, L105V, E106D
B12: ABU-367 (antibody, V domains shown)
VH: B3 VH with V12I, V27I, T28I, S35T, N58F, N83S, V100G, S101P
VL: B8 VL with Y32D, K45N
B13: ABU-355 (antibody, V domains shown)
VH: B3 VH with V27I, S30R, N58F, V100I, Y102R
VL: B7 VL with N45K, H90Q, S93G, P96H, I97S, T98A, Q101P, R104K, L105V, E106D
B14: ABU-371 (antibody, V domains shown)
VH: B3 VH with V27I, T28I, N58Y, V100D, S101Y
VL: B7 VL with S10F, N45K, D70E, H90Q, I97F, Q101P, R104K, L105V, E106D
B15: ABU-373 (antibody, V domains shown)
VH: EVQLVESGGGLIQPGGSLRLSCAASGITVSSNYMSWVRQAPGKGLEWVSVIYSGGSTYYADSVKGRFTISRDNSKNTLYLQMNSLRAEDTAVYYCARGGAYYYGMDVWGQGTTVTVSS
VL: DIQLTQSPSFLSASVGDRVTITCRASQGISSYLAWYQQKPGKAPKLLIYAASTLQSGVPSRFSGSGSGTEFTLTISSLQPEDFATYYCQQLNTYPPFGFGPGTKVDIK
B16: ABU-372 (antibody, V domains shown)
VH: EVQLVESGGGLVQPGGSLRLSCAASGVTVSRNYMSWVRQAPGKGLEWVSVIYSGGSTDYADSVKGRFTISRHNSKNTLYLQMNSLRVEDTAVYYCARDGYGMDVWGQGTTVTVSS
VL: B8 VL with K45N, D94Y, L95P, Y96P, T97A, Q100P, L104V, E105D
B17: ABU-365 (antibody, V domains shown)
VH: EVQLVESGGGLIQPGGSLRLSCAASGVTVSSNYMSWVRQAPGKGLEWVSLIYSGGSTYYADSVKGRFTISRDNSKNTLYLQMNSLRAEDTAVYYCARPIVGARSGMDVWGQGTTVTVSS
VL: DIQMTQSPSSLSASVGDRVTITCQASQDINNYLNWYQQKPGKAPKLLIYDASNLETGVPSRFSGSGSGTDFTFIISSLQPEDIATYYCQQHDNLPVTFGGGTKVEIK

Numbering of substitutions follows the chain as printed. Some results are limits rather than exact numbers.

One assay addresses S protein of the novel coronavirus SARS-CoV-2 (SARS-CoV-2, UniProt P0DTC2 14-1273). The assay can be described thus: cell-based or functional assay.
With B1, the “IC50 for neutralizing SARS-CoV-2 pseudovirus (Huh-7 cells, luciferase)” value (“IC50” below) was below 0.1 µg/mL.

With B2, the “IC50” value is below 0.1 µg/mL.

Turning to B3, the “IC50” value was below 1 µg/mL.

Consider B4, for which the “IC50” value is below 0.1 µg/mL.

Regarding B5, the “IC50” value is below 0.1 µg/mL.

In the case of B6, the “IC50” value is below 0.1 µg/mL.

As to B7, the “IC50” value was below 0.5 µg/mL.

On to B8, for which the “IC50” value is below 0.5 µg/mL.

On to B9, for which the “IC50” value is below 0.1 µg/mL.

As to B10, the “IC50” value is below 0.5 µg/mL.

B11: the “IC50” value is below 0.1 µg/mL.

Take B12: the “IC50” value was below 0.1 µg/mL.

Turning to B13, the “IC50” value was below 0.1 µg/mL.

As to B14, the “IC50” value is below 1 µg/mL.

In the case of B15, the “IC50” value is below 0.5 µg/mL.

For B16, the “IC50” value is below 0.5 µg/mL.

On to B17, for which the “IC50” value was below 0.1 µg/mL.

The target in another assay is biotin-labeled SARS-COV-2 RBD domain (SARS-CoV-2, UniProt P0DTC2 319-541). The assay can be described thus: SPR, Biacore T200, biotin-RBD on SA chip, antibody as analyte. For orientation: Surface plasmon resonance follows binding to a sensor surface in real time, without labels.
Turning to B1, the Kd (as a rule, the concentration at which binding is half-saturated) is below 1 nM.

The molecule B2 came in with a Kd below 1 nM.

As for B3, the Kd is below 10 nM.

The molecule B4 registered a Kd below 10 nM.

B5 displayed an equilibrium dissociation constant (Kd) below 10 nM.

Regarding B6, the Kd was below 10 nM.

On to B7, for which the Kd is below 20 nM.

The molecule B8 yielded a Kd below 20 nM.

The molecule B9 registered a Kd below 10 nM.

Consider B10, for which the Kd was below 20 nM.

The molecule B11 yielded a Kd below 10 nM.

B12: the Kd is below 1 nM.

As for B13, the Kd was below 1 nM.

Regarding B14, the Kd is below 20 nM.

The molecule B15 gave a Kd below 10 nM.

Molecule B16 returned a Kd below 20 nM.

For the molecule B17, the Kd is below 10 nM.
